{"source": "paper PMC12533970", "about": "“Highly accurate protein structure prediction-based virtual docking pipeline accelerating the identification of anti-schistosomal compounds”", "assay_in_all_cases": "EMSA; EMSA: 0.5 pmol FAM-RNA (heated 70 C 5 min, cooled on ice) with 1 ug WT or 2 ug mutant protein in 10 uL Beyotime reaction buffer (composition, salt and pH not stated), 20 min at room temperature; competitor 200 pmol unlabeled RNA; 6% native PAGE in 1x TBE pH 8.3", "settings_in_all_cases": "protein: recombinant; tags: His+SUMO, cleaved with ULP1; single strand", "key": {"SmU2AF65": {"target": "SmU2AF65 (Schistosoma mansoni, UniProt C4Q2F6 1-521)"}, "SmU2AF65 Mutant 1": {"target": "SmU2AF65 Mutant 1 (Schistosoma mansoni, UniProt C4Q2F6 1-521, L255A;R270A;Q284A;V289A)"}, "SmU2AF65 Mutant 2": {"target": "SmU2AF65 Mutant 2 (Schistosoma mansoni, UniProt C4Q2F6 1-521, L255A;R270E;Q284R;V289A)"}}}
{"binder": "UACAUAAAUUAAUAAGUAUUUUUACUUUUUUUUAUUUUCAAUUUCAACAG (ssRNA)", "note": "[50-nt intron 3' region consensus RNA]", "values": [{"measurement": "binding result", "setting": "SmU2AF65", "result": "binds"}, {"measurement": "binding result", "setting": "SmU2AF65 Mutant 1", "result": "binds"}, {"measurement": "binding result", "setting": "SmU2AF65 Mutant 2", "result": "no binding"}]}
